This is an account of results in patent US20230092787A1 (UNIVERSITY OF VIRGINIA PATENT FOUNDATION, published 2023).

Assay [1] has as its target T1, integrin alphav beta3 (αvβ3), human, on tumor cell lines (human, UniProt P06756 31-1048; P05106 27-788).
T1 construct: whole, on cells; Endogenous heterodimer on human DIPG and GBM tumor cell lines; also called integrin αvβ3; ITGAV/ITGB3
Kind of assay: flow cytometry, PE-LM609 on SU-DIPG-27 cells. How it is done: (§1) Human T cell analysis of ex vivo expanded CAR T cells, and T cells isolated from mouse blood, brain, and spleen was performed using antibodies against CD3 (HIT3a), CD4 (OKT4), CD8 (SK1), CD45RO (UCH1.1), CD45RA (H100), CCR7 (G043H7), CD127 (A019D5), PD-1 (EH12.2H7), LAG-3 (11C3C65), TIM-3 (F38-2E2), CD45 (2D1), and TCF-1 (7F11A10) (from BioLegend, San Diego, Calif., United States of America). Expression of integrin αᵥβ₃ CAR was detected using biotinylated protein L (Thermo Fisher Scientific, Waltham, Mass., United States of America) followed by streptavidin-conjugated PE (BioLegend, San Diego, Calif., United States of America). […] Sample data was acquired on a NovoCyte 3005 Flow Cytometer (ACEA Biosciences Inc., San Diego, Calif., United States of America) and analyzed using data analysis software sold under the tradename FLOWJO™ v10 (FlowJo LLC, Ashland, Oreg., United States of America).
(§2) Tumor cell line expression of integrin αᵥβ₃ was measured by flow cytometry. More particularly, cell surface expression of integrin αᵥβ₃ was evaluated by flow cytometry staining with phycoerythrin-conjugated anti-integrin αᵥβ₃ monoclonal antibody (clone LM609) on diffuse intrinsic pontine glioma (DIPG), neuroblastoma, glioblastoma (GBM), triple-negative breast, bladder, rhabdomyosarcoma (RMS), lung, cervical squamous cell carcinoma, and melanoma tumor cell lines. […]

The target of assay [2] is T1, integrin alphav beta3 (αvβ3), human, on …. Description: flow cytometry, PE-LM609 on SU-DIPG-IV cells. How it is done:
as §1, §2
In general terms: Flow cytometry measures light scatter and fluorescence of single cells or particles in a stream.

Assay [3] has the same target. Description: flow cytometry, PE-LM609 on SU-DIPG-XIII cells. On the procedure: as §1, §2
Assay [4] shares this target. Description: flow cytometry, PE-LM609 on SU-DIPG-21 cells. How it is done: as §1, §2
The target is the same in assay [5]. Kind of assay: flow cytometry, PE-LM609 on SU-DIPG-17 cells. On the procedure: as §1, §2
Assay [6] shares this target. Kind of assay: flow cytometry, PE-LM609 on GBM U87 cells. How it is done: as §1, §2
For assay [7] the target is unchanged. Kind of assay: flow cytometry, PE-LM609 on GBM U251 cells. On the procedure:
as §1, §2

Assay [8] has the same target. Kind of assay: flow cytometry, PE-LM609 on SU-DIPG-36 cells. On the procedure:
as §1, §2

T1 sequence (P06756 31-1048, chain 1 of 2): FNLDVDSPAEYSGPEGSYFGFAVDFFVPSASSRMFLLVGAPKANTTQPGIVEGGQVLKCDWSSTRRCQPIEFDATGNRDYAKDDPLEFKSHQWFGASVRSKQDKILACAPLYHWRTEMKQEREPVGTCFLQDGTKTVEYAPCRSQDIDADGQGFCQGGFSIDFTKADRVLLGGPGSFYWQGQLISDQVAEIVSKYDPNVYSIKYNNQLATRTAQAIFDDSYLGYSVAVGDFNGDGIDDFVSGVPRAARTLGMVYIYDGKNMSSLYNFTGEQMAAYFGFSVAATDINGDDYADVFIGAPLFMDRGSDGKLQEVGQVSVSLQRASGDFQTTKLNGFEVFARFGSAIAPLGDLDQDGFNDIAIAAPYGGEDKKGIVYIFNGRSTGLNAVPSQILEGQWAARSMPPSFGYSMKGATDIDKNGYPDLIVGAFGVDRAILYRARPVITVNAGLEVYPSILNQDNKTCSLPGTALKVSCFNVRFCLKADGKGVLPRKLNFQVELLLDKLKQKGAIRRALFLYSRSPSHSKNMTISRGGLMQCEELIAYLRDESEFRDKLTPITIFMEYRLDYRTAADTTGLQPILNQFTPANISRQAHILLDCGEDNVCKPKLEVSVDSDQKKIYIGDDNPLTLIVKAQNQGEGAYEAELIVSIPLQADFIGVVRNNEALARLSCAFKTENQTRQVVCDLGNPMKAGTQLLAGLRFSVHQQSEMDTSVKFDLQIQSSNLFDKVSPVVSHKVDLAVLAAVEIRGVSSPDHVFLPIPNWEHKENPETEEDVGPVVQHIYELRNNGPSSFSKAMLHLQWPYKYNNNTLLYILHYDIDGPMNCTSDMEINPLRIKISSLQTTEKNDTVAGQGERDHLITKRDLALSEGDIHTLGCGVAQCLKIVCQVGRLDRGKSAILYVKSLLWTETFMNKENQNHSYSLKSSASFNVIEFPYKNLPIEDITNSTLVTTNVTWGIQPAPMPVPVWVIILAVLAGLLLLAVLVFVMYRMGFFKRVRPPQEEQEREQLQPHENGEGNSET
T1 sequence (P05106 27-788, chain 2 of 2): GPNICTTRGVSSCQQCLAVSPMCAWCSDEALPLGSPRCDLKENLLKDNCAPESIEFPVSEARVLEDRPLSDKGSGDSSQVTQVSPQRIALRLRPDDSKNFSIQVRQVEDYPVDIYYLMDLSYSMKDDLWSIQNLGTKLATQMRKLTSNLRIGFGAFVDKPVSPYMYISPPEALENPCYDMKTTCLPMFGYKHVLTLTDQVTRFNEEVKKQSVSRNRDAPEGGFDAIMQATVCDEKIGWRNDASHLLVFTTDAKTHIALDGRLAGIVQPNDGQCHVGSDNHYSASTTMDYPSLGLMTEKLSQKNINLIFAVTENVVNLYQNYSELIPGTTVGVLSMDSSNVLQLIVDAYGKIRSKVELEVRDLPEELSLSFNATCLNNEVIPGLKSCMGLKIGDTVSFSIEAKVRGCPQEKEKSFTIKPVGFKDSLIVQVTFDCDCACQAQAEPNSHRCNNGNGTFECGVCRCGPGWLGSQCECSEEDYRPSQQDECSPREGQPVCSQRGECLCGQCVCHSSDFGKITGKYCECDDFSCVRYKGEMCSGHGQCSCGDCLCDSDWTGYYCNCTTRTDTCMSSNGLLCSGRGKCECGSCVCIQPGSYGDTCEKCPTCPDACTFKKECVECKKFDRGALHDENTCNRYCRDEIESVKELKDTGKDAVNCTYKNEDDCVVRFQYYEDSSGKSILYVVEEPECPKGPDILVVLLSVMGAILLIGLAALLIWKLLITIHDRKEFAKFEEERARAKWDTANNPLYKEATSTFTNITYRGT

B1: phycoerythrin-conjugated anti-integrin αvβ3 monoclonal antibody (clone LM609) (antibody, V domains shown)
VH: EVQLEESGGGLVKPGGSLKLSCAASGFAFSSYDMSWVRQIPEKRLEWVAKVSSGGGSTYYLDTVQGRFTISRDNAKNTLYLQMSSLNSEDTAMYYCARHNYGSFAYWGQGTLVTVSA
VL: ELVMTQTPATLSVTPGDSVSLSCRASQSISNHLHWYQQKSHESPRLLIKYASQSISGIPSRFSGSGSGTDFTLSINSVETEDFGMYFCQQSNSWPHTFGGGTKLEIK
notes: Bought reagent (Millipore Sigma), conjugated to phycoerythrin; also called PE-conjugated anti-integrin αvβ3 antibody (LM609; Millipore Sigma)
Take B1: the “MFI ratio (MFI/MFI isotype control)” value in assay [1] was 4; in assay [2], 8; in assay [3], 5; in assay [4] it was 6; in assay [5] it was 5; in assay [6], 17. Moreover, the figures for the “MFI ratio (MFI/MFI isotype control)” value in assay [7] and in assay [8] were 2 and 16, respectively.
